Measured values taken from the supplement of paper PMC9112550, “Optimization of the antimicrobial peptide Bac7 by deep mutational scanning” (BMC Biology, 2022).

What follows are sequences tested on Escherichia coli TOP10 (assay: shrunken log2 fold change of peptide-encoding DNA abundance (4.5 h post-induction vs induction); higher = less antimicrobial activity (less host growth inhibition)). Conditions: time post-induction: 4.5 h; library: site-saturation at positions 5, 18, 19, 20.
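Note: peptides expressed intracellularly from a pBAD plasmid library in pooled LB shake-flask culture, induced with 0.3% L-arabinose, DNA abundance read by NGS, three biological replicates, DESeq2 with apeglm shrinkage.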

Row | Sequence | shrunken log2 fold change
1 | RRIRIRPPRLPRPRPRPTIPPRP | -0.463
2 | RRIRIRPPRLPRPRPRPTLTPRP | -0.13
3 | RRIRIRPPRLPRPRPRPTMYPRP | -0.769
4 | RRIRIRPPRLPRPRPRPTPHPRP | 0.788
5 | RRIRIRPPRLPRPRPRPTPNPRP | -0.0265
6 | RRIRIRPPRLPRPRPRPTQYPRP | -0.616
7 | RRIRIRPPRLPRPRPRPTRYPRP | -0.328
8 | RRIRIRPPRLPRPRPRPTSWPRP | 0.0769
9 | RRIRIRPPRLPRPRPRPTTLPRP | -0.506
10 | RRIRIRPPRLPRPRPRPTTQPRP | 0.102
11 | RRIRIRPPRLPRPRPRPTTWPRP | -0.165
12 | RRIRIRPPRLPRPRPRPTVPPRP | 0.185
13 | RRIRIRPPRLPRPRPRPVCSPRP | -0.174
14 | RRIRIRPPRLPRPRPRPVDIPRP | -0.405
15 | RRIRIRPPRLPRPRPRPVEDPRP | -0.158
16 | RRIRIRPPRLPRPRPRPVEGPRP | -0.308
17 | RRIRIRPPRLPRPRPRPVERPRP | 0.0257
18 | RRIRIRPPRLPRPRPRPVFDPRP | -0.371
19 | RRIRIRPPRLPRPRPRPVFFPRP | -0.107
20 | RRIRIRPPRLPRPRPRPVFHPRP | -0.936
21 | RRIRIRPPRLPRPRPRPVFYPRP | -0.333
22 | RRIRIRPPRLPRPRPRPVGCPRP | 0.166
23 | RRIRIRPPRLPRPRPRPVGPPRP | 0.0747
24 | RRIRIRPPRLPRPRPRPVGTPRP | -0.126
25 | RRIRIRPPRLPRPRPRPVHHPRP | -0.732

Row | Sequence | shrunken log2 fold change
26 | RRIRIRPPRLPRPRPRPVIPPRP | -0.358
27 | RRIRIRPPRLPRPRPRPVKWPRP | -0.0064
28 | RRIRIRPPRLPRPRPRPVLWPRP | 0.199
29 | RRIRIRPPRLPRPRPRPVMMPRP | -0.31
30 | RRIRIRPPRLPRPRPRPVQCPRP | 0.0517
31 | RRIRIRPPRLPRPRPRPVQGPRP | 0.552
32 | RRIRIRPPRLPRPRPRPVRDPRP | 0.158
33 | RRIRIRPPRLPRPRPRPVSIPRP | -0.624
34 | RRIRIRPPRLPRPRPRPVSRPRP | 0.0446
35 | RRIRIRPPRLPRPRPRPVVWPRP | 0.321
36 | RRIRIRPPRLPRPRPRPVWSPRP | 0.0432
37 | RRIRIRPPRLPRPRPRPVYGPRP | -0.351
38 | RRIRIRPPRLPRPRPRPVYHPRP | -0.262
39 | RRIRIRPPRLPRPRPRPVYQPRP | -0.649
40 | RRIRIRPPRLPRPRPRPWAMPRP | -0.493
41 | RRIRIRPPRLPRPRPRPWAVPRP | -0.203
42 | RRIRIRPPRLPRPRPRPWCKPRP | -0.284
43 | RRIRIRPPRLPRPRPRPWCMPRP | -0.693
44 | RRIRIRPPRLPRPRPRPWDWPRP | 0.0472
45 | RRIRIRPPRLPRPRPRPWETPRP | -0.0306
46 | RRIRIRPPRLPRPRPRPWFKPRP | -1.74
47 | RRIRIRPPRLPRPRPRPWFLPRP | -0.802
48 | RRIRIRPPRLPRPRPRPWHNPRP | -0.169
49 | RRIRIRPPRLPRPRPRPWHTPRP | -0.113
50 | RRIRIRPPRLPRPRPRPWIEPRP | -0.186

Row | Sequence | shrunken log2 fold change
51 | RRIRIRPPRLPRPRPRPWISPRP | -0.0286
52 | RRIRIRPPRLPRPRPRPWLIPRP | 0.0717
53 | RRIRIRPPRLPRPRPRPWMPPRP | -0.131
54 | RRIRIRPPRLPRPRPRPWNIPRP | -0.0297
55 | RRIRIRPPRLPRPRPRPWPDPRP | -0.207
56 | RRIRIRPPRLPRPRPRPWREPRP | 0.158
57 | RRIRIRPPRLPRPRPRPWRMPRP | -0.473
58 | RRIRIRPPRLPRPRPRPWSAPRP | -0.649
59 | RRIRIRPPRLPRPRPRPWTVPRP | -0.15
60 | RRIRIRPPRLPRPRPRPWTWPRP | -0.204
61 | RRIRIRPPRLPRPRPRPWVHPRP | -0.0605
62 | RRIRIRPPRLPRPRPRPWVMPRP | -0.152
63 | RRIRIRPPRLPRPRPRPWVPPRP | -0.28
64 | RRIRIRPPRLPRPRPRPWWAPRP | -0.255
65 | RRIRIRPPRLPRPRPRPWWFPRP | -0.0772
66 | RRIRIRPPRLPRPRPRPWWLPRP | -0.0152
67 | RRIRIRPPRLPRPRPRPYCIPRP | -0.224
68 | RRIRIRPPRLPRPRPRPYCTPRP | -0.215
69 | RRIRIRPPRLPRPRPRPYDRPRP | -0.499
70 | RRIRIRPPRLPRPRPRPYFPPRP | -0.909
71 | RRIRIRPPRLPRPRPRPYHHPRP | -0.0849
72 | RRIRIRPPRLPRPRPRPYIDPRP | -0.484
73 | RRIRIRPPRLPRPRPRPYISPRP | -0.0173
74 | RRIRIRPPRLPRPRPRPYIWPRP | -0.0625
75 | RRIRIRPPRLPRPRPRPYKKPRP | -0.0756
